Reference: patent US20090010911A1, “METHODS AND COMPOSITIONS FOR AFFECTING CYCLOPHILIN A REGULATION OF KINASES IN MODULATING CELLULAR ACTIVITIES” (IOWA STATE UNIVERSITY RESEARCH FOUNDATION, INC., priority 2007, published 2009)

T1: Itk full-length enzyme (Mus musculus, UniProt Q03526)
T1 construct: Full-length Itk, Btk and Tec and the Itk kinase domain fragments were PCR amplified; made in house; host or cells: Sf9 insect cells (baculovirus), co-infected 1:1 with Lck baculovirus
T1 sequence (Q03526 1-625): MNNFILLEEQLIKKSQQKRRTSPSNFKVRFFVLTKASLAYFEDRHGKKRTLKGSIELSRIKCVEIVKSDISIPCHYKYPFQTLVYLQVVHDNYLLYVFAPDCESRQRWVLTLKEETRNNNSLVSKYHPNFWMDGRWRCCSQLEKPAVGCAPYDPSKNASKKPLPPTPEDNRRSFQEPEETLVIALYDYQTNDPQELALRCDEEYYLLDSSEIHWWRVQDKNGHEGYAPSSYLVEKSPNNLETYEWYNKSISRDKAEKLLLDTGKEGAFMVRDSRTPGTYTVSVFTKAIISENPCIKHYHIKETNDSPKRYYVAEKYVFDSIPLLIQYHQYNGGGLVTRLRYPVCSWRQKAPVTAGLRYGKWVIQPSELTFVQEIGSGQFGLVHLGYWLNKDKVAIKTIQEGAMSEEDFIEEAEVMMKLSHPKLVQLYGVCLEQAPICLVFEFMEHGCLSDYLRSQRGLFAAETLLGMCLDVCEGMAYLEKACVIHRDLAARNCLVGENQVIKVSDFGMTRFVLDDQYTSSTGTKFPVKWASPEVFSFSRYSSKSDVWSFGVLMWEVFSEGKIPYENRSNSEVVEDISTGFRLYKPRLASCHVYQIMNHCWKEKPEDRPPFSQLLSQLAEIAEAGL


Biological target: T1, Itk full-length enzyme
Experiment: In vitro kinase assay with western blotting, phosphorylation of SH2 domain-containing substrates with added free SH2 domain or CypA
Type: biochemical
Method: Substrate used in each experiment is indicated above each set of blots. 4(a) (left) Itk 32 substrate was incubated with Itk full-length enzyme as before (lane 1), or with Itk 32 domain:free Itk SH2 domain in ratios of 1:10, 1:25 or 1:50 (lanes 2-4, respectively) or equivalent ratios of PI3K N-terminal SH2 domain (lanes 5-7) and subjected to an in vitro kinase assay. […] Coomassie stain and an anti-FLAG blot (bottom panels) show protein levels. (right) The PLCγ1 SH2 domain competes with the PLCγ1 substrate in a similar manner. Lane 1 contains only Itk enzyme and PLCγ1 SH2C-Y783-substrate without additional free SH2 domain. Ratios of free SH2 domain to substrate are 1:5, 1:10 or 1:50 in lanes 2-4, respectively and equivalent ratios of PI3K SH2 domain are used in lanes 5-7. Coomassie stain of the gel and an anti-Itk blot (bottom panels) show protein levels. 4(b) Same experiment as shown in (a) using the Grb2 SH2 domain as a control. (left) Itk 32 substrate was incubated with Itk full-length enzyme (lane 1), or with Itk 32 domain:free Itk SH2 domain in ratios of 1:10 and 1:25 (lanes 2 & 3) or equivalent ratios of Grb2 SH2 domain (lanes 4 & 5) and subjected to an in vitro kinase assay. (right) Identical experiment following PLCγ1 substrate phosphorylation in the presence of the PLCγ1 and Grb2 SH2 domains. Lane 1 is PLCγ1 substrate alone; lanes 2 & 3 are PLCγ1 substrate:PLCγ1 SH2 domain in a 1:10 and 1:25 ratio, respectively and lanes 4 & 5 are identical ratios of PLCγ1 substrate:Grb2 SH2 domain. 4(c) The Itk SH2 domain competes with autophosphorylation of Y180 within full length Itk. For lanes 2-4, the amount of free SH2 domain is the same as used in panel (a), lanes 2-4. No exogenous SH2 domain has been added in lane 1 and full length Itk is both the enzyme and the substrate. Coomassie stain and an anti-FLAG blot (bottom panels) show protein levels. […] Initial velocities are shown for phosphorylation of peptide B (sequence shown in FIG. 5a) by full length Itk in the absence (column 1) and presence (column 2 and 3) of Itk SH2 domain. […]

autophosphorylation of Tyr 180 within full length Itk upon addition of free SH2 domain (full length Itk is both enzyme and substrate)	inhibition of Itk 32 substrate phosphorylation (Y180) by free SH2 domain (substrate:free SH2 domain ratios 1:10, 1:25, 1:50)	inhibition of PLCγ1 SH2C-Y783- substrate phosphorylation by free SH2 domain (substrate:free SH2 domain ratios 1:5 to 1:50)	Molecule
greatly diminished	inhibits substrate phosphorylation		Itk SH2 domain: isolated exogenous SH2 domain of Itk, purified from bacteria (protein) EWYNKSISRDKAEKLLLDTGKEGAFMVRDSRTPGTYTVSVFTKAIISENPCIKHYHIKETNDSPKRYYVAEKYVFDSIPLLIQYHQYNGGGLVTRLRYPVCSWRQKA
		inhibits substrate phosphorylation	PLCγ1 SH2C domain: isolated carboxy-terminal SH2 domain of PLCγ1 (protein) QTNAHESKEWYHASLTRAQAEHMLMRVPRDGAFLVRKRNEPNSYAISFRAEGKIKHCRVQQEGQTVMLGNSEFDSLVDLISYYEKHPLYRKMKLRYPI
